Experimental data: article PMC11125477 (PLOS ONE, 2024)

B1: LRP6 (receptor, human (endogenous in HEK293), UniProt O75581 20-1613, looked up)
chain: APLLLYANRRDLRLVDATNGKENATIVVGGLEDAAAVDFVFSHGLIYWSDVSEEAIKRTEFNKTESVQNVVVSGLLSPDGLACDWLGEKLYWTDSETNRIEVSNLDGSLRKVLFWQELDQPRAIALDPSSGFMYWTDWGEVPKIERAGMDGSSRFIIINSEIYWPNGLTLDYEEQKLYWADAKLNFIHKSNLDGTNRQAVVKGSLPHPFALTLFEDILYWTDWSTHSILACNKYTGEGLREIHSDIFSPMDIHAFSQQRQPNATNPCGIDNGGCSHLCLMSPVKPFYQCACPTGVKLLENGKTCKDGATELLLLARRTDLRRISLDTPDFTDIVLQLEDIRHAIAIDYDPVEGYIYWTDDEVRAIRRSFIDGSGSQFVVTAQIAHPDGIAVDWVARNLYWTDTGTDRIEVTRLNGTMRKILISEDLEEPRAIVLDPMVGYMYWTDWGEIPKIERAALDGSDRVVLVNTSLGWPNGLALDYDEGKIYWGDAKTDKIEVMNTDGTGRRVLVEDKIPHIFGFTLLGDYVYWTDWQRRSIERVHKRSAEREVIIDQLPDLMGLKATNVHRVIGSNPCAEENGGCSHLCLYRPQGLRCACPIGFELISDMKTCIVPEAFLLFSRRADIRRISLETNNNNVAIPLTGVKEASALDFDVTDNRIYWTDISLKTISRAFMNGSALEHVVEFGLDYPEGMAVDWLGKNLYWADTGTNRIEVSKLDGQHRQVLVWKDLDSPRALALDPAEGFMYWTEWGGKPKIDRAAMDGSERTTLVPNVGRANGLTIDYAKRRLYWTDLDTNLIESSNMLGLNREVIADDLPHPFGLTQYQDYIYWTDWSRRSIERANKTSGQNRTIIQGHLDYVMDILVFHSSRQSGWNECASSNGHCSHLCLAVPVGGFVCGCPAHYSLNADNRTCSAPTTFLLFSQKSAINRMVIDEQQSPDIILPIHSLRNVRAIDYDPLDKQLYWIDSRQNMIRKAQEDGSQGFTVVVSSVPSQNLEIQPYDLSIDIYSRYIYWTCEATNVINVTRLDGRSVGVVLKGEQDRPRAVVVNPEKGYMYFTNLQERSPKIERAALDGTEREVLFFSGLSKPIALALDSRLGKLFWADSDLRRIESSDLSGANRIVLEDSNILQPVGLTVFENWLYWIDKQQQMIEKIDMTGREGRTKVQARIAQLSDIHAVKELNLQEYRQHPCAQDNGGCSHICLVKGDGTTRCSCPMHLVLLQDELSCGEPPTCSPQQFTCFTGEIDCIPVAWRCDGFTECEDHSDELNCPVCSESQFQCASGQCIDGALRCNGDANCQDKSDEKNCEVLCLIDQFRCANGQCIGKHKKCDHNVDCSDKSDELDCYPTEEPAPQATNTVGSVIGVIVTIFVSGTVYFICQRMLCPRMKGDGETMTNDYVVHGPASVPLGYVPHPSSLSGSLPGMSRGKSMISSLSIMGGSSGPPYDRAHVTGASSSSSSSTKGTYFPAILNPPPSPATERSHYTMEFGYSSNSPSTHRSYSYRPYSYRHFAPPTTPCSTDVCDSDYAPSRRMTSVATAKGYTSDLNYDSEPVPPPPTPRSQYLSAEENYESCPPSPYTERSYSHHLYPPPPSPCTDSS
notes: LRP6, endogenous in HEK293 cells, detected with rabbit anti-LRP6 (CST 2560); also called total LRP6; source: endogenous, HEK293 lysate
B2: phospho-LRP6 (Ser 1490) (receptor, human (endogenous in HEK293), UniProt O75581 20-1613, looked up)
chain: APLLLYANRRDLRLVDATNGKENATIVVGGLEDAAAVDFVFSHGLIYWSDVSEEAIKRTEFNKTESVQNVVVSGLLSPDGLACDWLGEKLYWTDSETNRIEVSNLDGSLRKVLFWQELDQPRAIALDPSSGFMYWTDWGEVPKIERAGMDGSSRFIIINSEIYWPNGLTLDYEEQKLYWADAKLNFIHKSNLDGTNRQAVVKGSLPHPFALTLFEDILYWTDWSTHSILACNKYTGEGLREIHSDIFSPMDIHAFSQQRQPNATNPCGIDNGGCSHLCLMSPVKPFYQCACPTGVKLLENGKTCKDGATELLLLARRTDLRRISLDTPDFTDIVLQLEDIRHAIAIDYDPVEGYIYWTDDEVRAIRRSFIDGSGSQFVVTAQIAHPDGIAVDWVARNLYWTDTGTDRIEVTRLNGTMRKILISEDLEEPRAIVLDPMVGYMYWTDWGEIPKIERAALDGSDRVVLVNTSLGWPNGLALDYDEGKIYWGDAKTDKIEVMNTDGTGRRVLVEDKIPHIFGFTLLGDYVYWTDWQRRSIERVHKRSAEREVIIDQLPDLMGLKATNVHRVIGSNPCAEENGGCSHLCLYRPQGLRCACPIGFELISDMKTCIVPEAFLLFSRRADIRRISLETNNNNVAIPLTGVKEASALDFDVTDNRIYWTDISLKTISRAFMNGSALEHVVEFGLDYPEGMAVDWLGKNLYWADTGTNRIEVSKLDGQHRQVLVWKDLDSPRALALDPAEGFMYWTEWGGKPKIDRAAMDGSERTTLVPNVGRANGLTIDYAKRRLYWTDLDTNLIESSNMLGLNREVIADDLPHPFGLTQYQDYIYWTDWSRRSIERANKTSGQNRTIIQGHLDYVMDILVFHSSRQSGWNECASSNGHCSHLCLAVPVGGFVCGCPAHYSLNADNRTCSAPTTFLLFSQKSAINRMVIDEQQSPDIILPIHSLRNVRAIDYDPLDKQLYWIDSRQNMIRKAQEDGSQGFTVVVSSVPSQNLEIQPYDLSIDIYSRYIYWTCEATNVINVTRLDGRSVGVVLKGEQDRPRAVVVNPEKGYMYFTNLQERSPKIERAALDGTEREVLFFSGLSKPIALALDSRLGKLFWADSDLRRIESSDLSGANRIVLEDSNILQPVGLTVFENWLYWIDKQQQMIEKIDMTGREGRTKVQARIAQLSDIHAVKELNLQEYRQHPCAQDNGGCSHICLVKGDGTTRCSCPMHLVLLQDELSCGEPPTCSPQQFTCFTGEIDCIPVAWRCDGFTECEDHSDELNCPVCSESQFQCASGQCIDGALRCNGDANCQDKSDEKNCEVLCLIDQFRCANGQCIGKHKKCDHNVDCSDKSDELDCYPTEEPAPQATNTVGSVIGVIVTIFVSGTVYFICQRMLCPRMKGDGETMTNDYVVHGPASVPLGYVPHPSSLSGSLPGMSRGKSMISSLSIMGGSSGPPYDRAHVTGASSSSSSSTKGTYFPAILNPPPSPATERSHYTMEFGYSSNSPSTHRSYSYRPYSYRHFAPPTTPCSTDVCDSDYAPSRRMTSVATAKGYTSDLNYDSEPVPPPPTPRSQYLSAEENYESCPPSPYTERSYSHHLYPPPPSPCTDSS
modifications: phosphoserine at 1490
notes: LRP6 phosphorylated at Ser 1490, endogenous in HEK293 cells, detected with rabbit anti-phospho-LRP6 (Ser 1490) (CST 2568); also called p-LRP6; source: endogenous, HEK293 lysate

Molecular target: T1, MAMDC4 (UniProt Q63191 22-1216)
T1 construct: HEK293 cells also hold endogenous (human) MAMDC4, which the anti-MAMDC4 antibody may precipitate as well; also called Endotubin; AEGP; source: HEK293, transfected (overexpressed), in lysate
Assay: co-IP; HEK293 cells overexpressing MAMDC4, control or 50% Wnt3a conditioned media for 6hrs; NP-40 lysis buffer; lysates precipitated with anti-MAMDC4 (hybridoma supernatant) or control IgG on Protein G Dynabeads overnight at 4°C; immunoblot; input 1/50th of lysate
Details: partners not purified

T1 sequence (Q63191 22-1216): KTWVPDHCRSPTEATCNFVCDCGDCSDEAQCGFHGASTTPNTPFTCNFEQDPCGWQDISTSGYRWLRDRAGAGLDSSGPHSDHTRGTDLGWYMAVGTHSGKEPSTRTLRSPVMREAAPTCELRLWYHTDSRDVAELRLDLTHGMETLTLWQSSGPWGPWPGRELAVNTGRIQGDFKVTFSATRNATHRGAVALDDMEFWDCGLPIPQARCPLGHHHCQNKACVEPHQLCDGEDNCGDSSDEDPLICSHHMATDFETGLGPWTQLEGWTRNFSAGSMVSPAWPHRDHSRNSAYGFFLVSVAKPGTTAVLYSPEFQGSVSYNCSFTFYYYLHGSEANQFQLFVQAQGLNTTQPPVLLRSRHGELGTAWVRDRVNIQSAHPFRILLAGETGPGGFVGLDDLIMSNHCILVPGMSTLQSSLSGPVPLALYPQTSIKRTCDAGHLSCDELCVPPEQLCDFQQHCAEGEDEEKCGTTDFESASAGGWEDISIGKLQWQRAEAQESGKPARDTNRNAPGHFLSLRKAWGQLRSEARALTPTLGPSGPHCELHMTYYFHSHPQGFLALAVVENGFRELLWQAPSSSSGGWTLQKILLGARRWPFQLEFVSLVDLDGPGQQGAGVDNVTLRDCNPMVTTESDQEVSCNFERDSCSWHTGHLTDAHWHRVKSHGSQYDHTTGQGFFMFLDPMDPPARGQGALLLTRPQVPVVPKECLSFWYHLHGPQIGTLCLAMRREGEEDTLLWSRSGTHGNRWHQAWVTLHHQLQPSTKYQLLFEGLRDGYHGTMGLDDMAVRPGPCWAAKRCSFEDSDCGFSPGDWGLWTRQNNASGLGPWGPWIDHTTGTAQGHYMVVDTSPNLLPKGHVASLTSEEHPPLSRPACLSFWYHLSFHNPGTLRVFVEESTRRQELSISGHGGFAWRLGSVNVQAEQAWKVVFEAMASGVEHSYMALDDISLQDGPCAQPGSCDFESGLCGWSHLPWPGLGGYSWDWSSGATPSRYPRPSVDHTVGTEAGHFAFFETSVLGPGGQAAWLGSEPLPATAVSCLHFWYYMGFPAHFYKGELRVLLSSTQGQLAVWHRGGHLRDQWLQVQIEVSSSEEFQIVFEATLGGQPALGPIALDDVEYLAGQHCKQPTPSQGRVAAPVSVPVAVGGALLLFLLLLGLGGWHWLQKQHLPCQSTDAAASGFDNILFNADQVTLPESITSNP

Row | Binder | ratio of signal from immunoprecipitation relative to input
1 | B1 | ~1 ratio IP to input
2 | B2 | ~1 ratio IP to input
